Laboratory results published in patent US20160304625A1.

Assays:
[1] = biological target: mIgM proximal domain peptide conjugated to keyhole limpet hemocyanin (human); assay: competition ELISA on mIgM-PD-KLH, competitor unlabeled mAb 1
[2] = biological target: mIgM proximal domain peptide conjugated to keyhole limpet hemocyanin (human); assay: competition ELISA on mIgM-PD-KLH, competitor unlabeled mAb 4
[3] = biological target: mIgM proximal domain peptide conjugated to keyhole limpet hemocyanin (human); assay: competition ELISA on KLH-mIgM-PD, competitor unlabeled mAb 4
[4] = biological target: mIgM proximal domain peptide conjugated to keyhole limpet hemocyanin (human); assay: competition ELISA on KLH-mIgM-PD, competitor unlabeled mAb 1
[5] = biological target: mIgM proximal domain peptide conjugated to keyhole limpet hemocyanin (human); assay: competition ELISA on mIgM-PD-KLH, competitor unlabeled mAb 2
[6] = biological target: mIgM proximal domain peptide conjugated to keyhole limpet hemocyanin (human); assay: competition ELISA on KLH-mIgM-PD, competitor unlabeled mAb 2
[7] = biological target: mIgM proximal domain peptide conjugated to keyhole limpet hemocyanin (human); assay: ELISA direct binding, mIgM-PD-KLH
[8] = biological target: mIgM proximal domain peptide conjugated to keyhole limpet hemocyanin (human); assay: competition ELISA on KLH-mIgM-PD, competitor unlabeled mAb 3
[9] = biological target: mIgM proximal domain peptide conjugated to keyhole limpet hemocyanin (human); assay: competition ELISA on mIgM-PD-KLH, competitor unlabeled mAb 3
[10] = biological target: mIgM proximal domain peptide conjugated to keyhole limpet hemocyanin (human); assay: ELISA, KLH-PDm

mAb-HRP binding after blocking by unlabeled mAb [1]: 52 | mAb-HRP binding after blocking by unlabeled mAb [2]: 9 | mAb-HRP binding after blocking by unlabeled mAb [3]: 14 | mAb-HRP binding after blocking by unlabeled mAb [4]: 74 | mAb-HRP binding after blocking by unlabeled mAb [5]: 71 | mAb-HRP binding after blocking by unlabeled mAb [6]: 68 | ELISA reading [7]: 0.5 | mAb-HRP binding after blocking by unlabeled mAb [8]: 72 | mAb-HRP binding after blocking by unlabeled mAb [9]: 62 | ELISA reading [10]: 0.9
B1: monoclonal antibody mAb4-2b (antibody, mouse IgG1, V domains shown)
VH: EVQLEESGAELVKPGASLKLSCKASGYTFTSYWMNWVKQRPGQGLEWIGIIHPNSGSTNYNEKFKTKATLTVDKSSSTAYMQLSSLTSEDSAVYYCARTRGNYGMDYWGQGTSVTVSS
VL: DIVMTQSHKFMSTSVGDRVSITCKASQDVSTAVAWYQQKPGQSPTLLIYSASYRNTGVPDRFTGSGSGTDFTFTISSVQAEDLAVYYCQQHFSIPPLTFGAGTKLELKR
